# IntAct's records for PubMed 12529400
# B1: Homeodomain-interacting protein kinase 1 (Mus musculus), O88904 (parent)
# chain: MASQLQVFSPPSVSSSAFCSAKKLKIEPSGWDVSGQSSNDKYYTHSKTLPATQGQASSSHQVANFNLPAYDQGLLLPAPAVEHIVVTAADSSGSAATATFQSSQTLTHRSNVSLLEPYQKCGLKRKSEEVESNGSVQIIEEHPPLMLQNRTVVGAAATTTTVTTKSSSSSGEGDYQLVQHEILCSMTNSYEVLEFLGRGTFGQVAKCWKRSTKEIVAIKILKNHPSYARQGQIEVSILSRLSSENADEYNFVRSYECFQHKNHTCLVFEMLEQNLYDFLKQNKFSPLPLKYIRPILQQVATALMKLKSLGLIHADLKPENIMLVDPVRQPYRVKVIDFGSASHVSKAVCSTYLQSRYYRAPEIILGLPFCEAIDMWSLGCVIAELFLGWPLYPGASEYDQIRYISQTQGLPAEYLLSAGTKTTRFFNRDPNLGYPLWRLKTPEEHELETGIKSKEARKYIFNCLDDMAQVNMSTDLEGTDMLAEKADRREYIDLLKKMLTIDADKRITPLKTLNHQFVTMSHLLDFPHSSHVKSCFQNMEICKRRVHMYDTVSQIKSPFTTHVAPNTSTNLTMSFSNQLNTVHNQASVLASSSTAAAATLSLANSDVSLLNYQSALYPSSAAPVPGVAQQGVSLQPGTTQICTQTDPFQQTFIVCPPAFQTGLQATTKHSGFPVRMDNAVPIVPQAPAAQPLQIQSGVLTQGSCTPLMVATLHPQVATITPQYAVPFTLSCAAGRPALVEQTAAVLQAWPGGTQQILLPSAWQQLPGVALHNSVQPAAVIPEAMGSSQQLADWRNAHSHGNQYSTIMQQPSLLTNHVTLATAQPLNVGVAHVVRQQQSSSLPSKKNKQSAPVSSKSSLEVLPSQVYSLVGSSPLRTTSSYNSLVPVQDQHQPIIIPDTPSPPVSVITIRSDTDEEEDNKYKPNSSSLKARSNVISYVTVNDSPDSDSSLSSPHPTDTLSALRGNSGTLLEGPGRPAADGIGTRTIIVPPLKTQLGDCTVATQASGLLSSKTKPVASVSGQSSGCCITPTGYRAQRGGASAVQPLNLSQNQQSSSASTSQERSSNPAPRRQQAFVAPLSQAPYAFQHGSPLHSTGHPHLAPAPAHLPSQPHLYTYAAPTSAAALGSTSSIAHLFSPQGSSRHAAAYTTHPSTLVHQVPVSVGPSLLTSASVAPAQYQHQFATQSYIGSSRGSTIYTGYPLSPTKISQYSYL
# Variants of: B1
# Conditions: with daxx_human DAXX
row,Variant,effect of a mutation on the interaction
1,K219A,decreasing interaction

# Variants of: B1
# Conditions: with daxx_mouse Daxx
row,Variant,effect of a mutation on the interaction
1,K219A,decreasing interaction
